The target in series [1] is T1, Spo11;Rec102;Rec104;Ski8 (Saccharomyces cerevisiae;Saccharomyces …, UniProt P23179;Q02721;P33323;Q02793 1-398;1-264;1-182;1-397, |||). As to the kind of experiment: EMSA.
The target of series [2] is T1, Spo11;Rec102;Rec104;Ski8. Description: EMSA. The source holds these as a separate data set. (In general: In EMSA bound probe runs differently from free probe, usually more slowly.)

Where two headings read alike, the source gives them in different places.

T1 sequence (P23179 whole entry, chain 1 of 4): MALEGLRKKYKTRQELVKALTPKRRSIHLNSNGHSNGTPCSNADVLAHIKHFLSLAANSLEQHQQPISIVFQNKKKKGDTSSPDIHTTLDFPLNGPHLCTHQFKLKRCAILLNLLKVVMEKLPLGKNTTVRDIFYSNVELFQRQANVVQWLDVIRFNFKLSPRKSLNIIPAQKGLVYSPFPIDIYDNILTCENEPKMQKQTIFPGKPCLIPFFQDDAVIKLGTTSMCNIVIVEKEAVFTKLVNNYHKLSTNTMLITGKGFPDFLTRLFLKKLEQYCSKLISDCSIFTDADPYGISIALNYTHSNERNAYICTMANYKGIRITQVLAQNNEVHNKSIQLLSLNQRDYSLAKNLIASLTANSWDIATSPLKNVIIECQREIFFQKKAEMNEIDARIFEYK
T1 sequence (Q02721 whole entry, chain 2 of 4): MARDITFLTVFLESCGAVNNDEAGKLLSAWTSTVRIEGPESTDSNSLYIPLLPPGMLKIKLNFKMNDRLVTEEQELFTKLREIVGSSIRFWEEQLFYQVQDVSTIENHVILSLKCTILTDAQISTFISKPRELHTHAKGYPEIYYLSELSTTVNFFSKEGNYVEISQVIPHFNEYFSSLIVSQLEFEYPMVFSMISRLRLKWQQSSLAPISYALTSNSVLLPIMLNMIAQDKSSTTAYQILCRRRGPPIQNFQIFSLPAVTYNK
T1 sequence (P33323 whole entry, chain 3 of 4): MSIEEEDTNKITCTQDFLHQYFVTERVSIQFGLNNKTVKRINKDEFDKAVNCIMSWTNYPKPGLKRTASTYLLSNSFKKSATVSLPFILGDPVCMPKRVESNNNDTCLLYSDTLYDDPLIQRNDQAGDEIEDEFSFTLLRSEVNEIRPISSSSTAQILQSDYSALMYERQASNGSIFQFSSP
T1 sequence (Q02793 whole entry, chain 4 of 4): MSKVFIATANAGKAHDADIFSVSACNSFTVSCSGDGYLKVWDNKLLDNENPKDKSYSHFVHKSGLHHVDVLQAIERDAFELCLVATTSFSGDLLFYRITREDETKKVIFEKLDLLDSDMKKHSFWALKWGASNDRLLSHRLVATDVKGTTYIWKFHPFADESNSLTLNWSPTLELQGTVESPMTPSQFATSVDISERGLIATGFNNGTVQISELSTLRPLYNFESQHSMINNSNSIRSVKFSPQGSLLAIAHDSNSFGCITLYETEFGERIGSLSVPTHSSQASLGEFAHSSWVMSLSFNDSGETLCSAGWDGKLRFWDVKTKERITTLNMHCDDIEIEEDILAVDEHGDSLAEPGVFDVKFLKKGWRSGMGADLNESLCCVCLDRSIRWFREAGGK

B1: 31 bp (dsDNA)
DNA 1: TAGCAATGTAATCGTCTATGACGTGTAGCGC
DNA 2: TAGCGCTACACGTCATAGACGATTACATTGC
On to B1, for which the binding result with Spo11;Rec102;Rec104;Ski8 [1] is on record as “binds”.

B2: 25 bp (dsDNA)
DNA 1: TAGCAATGTAATCGTCTATGACGTT
DNA 2: TAAACGTCATAGACGATTACATTGC
With B2, in the series with Spo11;Rec102;Rec104;Ski8 [1], the binding result was “binds”.

B3: 32 bp (dsDNA)
DNA 1: TAGCAATGTAATCGTCTATGACGTGATAGCGC
DNA 2: TAGCGCTATCACGTCATAGACGATTACATTGC
For the molecule B3, in the series with Spo11;Rec102;Rec104;Ski8 [1], the binding result is “binds”.

B4: 34 bp (dsDNA)
DNA 1: TAGCAATGTAATCGTCTATGACGTGTCATAGCGC
DNA 2: TAGCGCTATGACACGTCATAGACGATTACATTGC
Turning to B4, the binding result with Spo11;Rec102;Rec104;Ski8 [2] was “binds”.

B5: 33 bp (dsDNA)
DNA 1: TAGCAATGTAATCGTCTATGACGTGCATAGCGC
DNA 2: TAGCGCTATGCACGTCATAGACGATTACATTGC
In the case of B5, the binding result with Spo11;Rec102;Rec104;Ski8 [1] is given as “binds”.

B6: 24 bp (dsDNA)
DNA 1: TAGCAATGTAATCGTCTATGACGT
DNA 2: TAACGTCATAGACGATTACATTGC
For B6, the binding result with Spo11;Rec102;Rec104;Ski8 [1] is “binds”.

B7: 30 bp (dsDNA)
DNA 1: TAGCAATGTAATCGTCTATGACGTTAGCGC
DNA 2: TAGCGCTAACGTCATAGACGATTACATTGC
For the molecule B7, the binding result with Spo11;Rec102;Rec104;Ski8 [1] is on record as “binds”.

Values taken from paper PMC7611867.
